# Test results from patent publication US20190309060A1 (PHILOGEN S P A, published 2019).
# Positions count from the first letter of the chain named.
# T1: human galectin-2, natively expressed (LS174T cells; human colon biopsy sections) (human, UniProt P05162 1-132)
# T1 construct: Cytoplasmic protein in fixed, methanol-permeabilized LS174T cells, and native protein in frozen colon sections; also called natively expressed galectin-2 antigen
# T1 sequence: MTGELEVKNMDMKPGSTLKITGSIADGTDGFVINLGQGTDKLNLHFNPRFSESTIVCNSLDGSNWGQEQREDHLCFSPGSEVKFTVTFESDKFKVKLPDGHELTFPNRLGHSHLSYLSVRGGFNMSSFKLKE
# T2: human Agr2, native, in human colon biopsy sections (human, UniProt O95994 21-175)
# T2 construct: Native protein in healthy-donor colon and ulcerative colitis sections; also called human Agr2 antigen
# T2 sequence: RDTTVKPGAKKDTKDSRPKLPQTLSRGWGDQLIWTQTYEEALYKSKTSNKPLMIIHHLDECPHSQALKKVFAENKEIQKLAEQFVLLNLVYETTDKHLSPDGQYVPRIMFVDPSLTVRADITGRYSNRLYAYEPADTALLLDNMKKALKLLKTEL
# T3: human cadherin-17, native, in human ulcerative colitis biopsy sections (human, UniProt Q12864 23-832)
# T3 construct: Native protein in tissue; also called cognate antigen (of AV17)
# T3 sequence: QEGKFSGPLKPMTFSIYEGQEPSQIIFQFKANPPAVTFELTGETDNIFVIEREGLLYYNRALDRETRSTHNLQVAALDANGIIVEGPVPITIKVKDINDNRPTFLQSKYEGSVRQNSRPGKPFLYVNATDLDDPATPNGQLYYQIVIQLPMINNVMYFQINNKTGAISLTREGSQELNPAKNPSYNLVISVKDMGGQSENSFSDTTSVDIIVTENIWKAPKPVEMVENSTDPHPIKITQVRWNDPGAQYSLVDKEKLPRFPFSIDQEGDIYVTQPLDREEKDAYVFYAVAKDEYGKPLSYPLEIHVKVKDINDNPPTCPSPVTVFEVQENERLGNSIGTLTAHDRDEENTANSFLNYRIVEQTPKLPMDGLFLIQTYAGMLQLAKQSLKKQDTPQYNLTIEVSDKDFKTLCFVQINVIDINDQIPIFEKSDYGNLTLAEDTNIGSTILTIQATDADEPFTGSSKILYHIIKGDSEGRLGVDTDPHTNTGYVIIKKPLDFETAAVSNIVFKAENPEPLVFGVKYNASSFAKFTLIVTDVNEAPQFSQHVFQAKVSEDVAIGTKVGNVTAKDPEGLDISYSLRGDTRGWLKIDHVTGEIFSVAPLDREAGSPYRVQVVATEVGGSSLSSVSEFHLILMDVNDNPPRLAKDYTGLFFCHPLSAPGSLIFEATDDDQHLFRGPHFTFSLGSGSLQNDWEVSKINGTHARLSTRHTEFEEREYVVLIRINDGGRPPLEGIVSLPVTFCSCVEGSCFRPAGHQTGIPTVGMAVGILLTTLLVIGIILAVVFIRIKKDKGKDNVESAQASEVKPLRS
# B1: FF06 in IgG format (antibody, V domains shown)
# VH: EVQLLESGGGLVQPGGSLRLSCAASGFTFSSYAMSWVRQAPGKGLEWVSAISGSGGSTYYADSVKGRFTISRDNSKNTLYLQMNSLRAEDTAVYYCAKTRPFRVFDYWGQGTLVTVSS
# VL: SSELTQDPAVSVALGQTVRITCQGDSLRSYYASWYQQKPGQAPVLVIYGKNNRPSGIPDRFSGSSSGNTASLTITGAQAEDEADYYCNSSRSRRPAVVFGGGTKLTVLG
# notes: also called anti-Galectin-2 (FF06)
# B2: CPR02 in IgG format (antibody, V domains shown)
# VH: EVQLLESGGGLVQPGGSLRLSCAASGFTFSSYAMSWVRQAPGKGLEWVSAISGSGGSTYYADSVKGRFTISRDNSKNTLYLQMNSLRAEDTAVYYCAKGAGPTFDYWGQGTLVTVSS
# VL: B1 VL with R91P, S92P, R93T, P95A, A96V
# notes: also called anti-Agr2 (CPR02)
# B3: AV17 in human IgG1 format (antibody, V domains shown)
# VH: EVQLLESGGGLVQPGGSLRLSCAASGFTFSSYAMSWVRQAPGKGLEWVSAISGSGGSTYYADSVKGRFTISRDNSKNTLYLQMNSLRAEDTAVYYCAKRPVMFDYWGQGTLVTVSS
# VL: B1 VL with R91L, S92P, R93S, R94P, P95Q, A96V
# notes: Human IgG1 format; also called anti-cadherin 17 (AV17)
# Experiments:
# [1] = target: T1, human galectin-2, natively expressed …; assay: immunofluorescence of frozen healthy colon sections, biotinylated IgG, streptavidin-alexa 488
# Method: (§1) Detection of the primary antibody was performed with streptavidin-alexa 488 (Invitrogen). Blood vessels were detected using a mouse anti-human CD31 antibody (eBioscience) followed by detection with an anti-mouse alexa 594 antibody (Invitrogen). Counterstaining for cell nuclei was performed with DAPI (eBioscience).
# (§2) (i) Freshly frozen colon biopsy samples from a healthy donor were stained according to already published methods (Pfaffen et al., Eur J Nucl Med Mol Imagin (2010) 37: 1559-65). Briefly, purified biotinylated antibodies in IgG format were added at the final concentration of 2 μg/ml onto the sections. Detection of the primary antibody was performed with streptavidin-alexa 488 (Invitrogen). Blood vessels were detected using a mouse anti-human CD31 antibody (eBioscience) followed by detection with an anti-mouse alexa 594 antibody (Invitrogen). Counterstaining for cell nuclei was performed with DAPI (eBioscience).
# as §2, with “(ii)” for “(i)”, “Detection of the primary antibody was performed with streptavidin-alexa 488 (Invitrogen).” left out, “Counterstaining for cell nuclei was performed with DAPI (eBioscience).” left out
# [2] = target: T2, human Agr2, native, in human colon …; assay: as above
# Method: as §1, §2
# as §2, with “(ii)” for “(i)”, “Detection of the primary antibody was performed with streptavidin-alexa 488 (Invitrogen).” left out, “Counterstaining for cell nuclei was performed with DAPI (eBioscience).” left out
# [3] = target: T3, human cadherin-17, native, in human …; assay: immunofluorescence of frozen human ulcerative colitis sections, human IgG1 format, rabbit anti-human IgG and goat anti-rabbit Alexa 488
# Method: Purified antibodies in human IgG1 format were added at the final concentration of 2 μg/ml to the sections. […] A positive control was performed by counterstaining for cell nuclei was performed with DAPI (eBioscience). Sections were mounted with fluorescent mounting medium (DAKO) followed by analysis using an Axioskop2 microscope with a 10× objective (Carl Zeiss AG, Jena, Germany). A stronger intensity signal in the colonic crypts region can be detected in the sections stained with CPR02, AV17 and FF06 when compared to the signal observed with an irrelevant antibody (Negative Control).
# Freshly frozen human biopsy samples of Ulcerative Colitis were stained as described in the following lines. In brief, purified antibodies in human IgG1 format were added at the final concentration of 2 μg/ml to the sections. […] Further positive control was performed by counterstaining for cell nuclei was performed with DAPI (eBioscience). Sections were mounted with fluorescent mounting medium (DAKO) followed by analysis using an Axioskop2 microscope with a 10× objective (Carl Zeiss AG, Jena, Germany).
binder,measurement,setting,value
B1,binding result,[1],binds
B2,binding result,[2],binds
B3,binding result,[3],binds
